Data as given in patent US20240002464A1 (published 2024).
Substitutions are numbered along the chain they refer to.

Target: T1, HPV16 E6 peptide on HLA-A*02:01 (human)
T1 peptide: TIHDIILECV
Assay: Kd or kinetics
Experimental: In this example, the binding activity of the soluble TCR molecule obtained according to Example 2 to the […]-HLA A0201 complex was tested using a BIAcore T200 real-time analysis system. The […]-HLA A0201 complex was prepared by methods well known to those skilled in the art, mainly including purification, renaturation, repurification, and biotinylation. The anti-streptavidin antibody (GenScript) was added to the coupling buffer (10 mM sodium acetate buffer, pH 4.77), and then the antibody was passed through a CMS chip previously activated with EDC and NHS so that the antibody was immobilized on the chip surface, and finally the unreacted activated surface was blocked with a solution of ethanolamine in hydrochloric acid to complete the coupling. The coupling was at a level of about 15,000 RU. A low concentration of streptavidin was allowed to flow through the surface of the chip coated with the antibody, then the […]-HLA A0201 complex was allowed to flow through a detection channel, with the other channel serving as a reference channel. Then 0.05 mM of biotin was allowed to flow through the chip at a flow rate of 10 μL/min for 2 minutes, blocking the remaining binding site for streptavidin.
The kinetic parameters were calculated using the BIAcore Evaluation software to obtain the binding kinetic profiles of the soluble TCR molecules of the present disclosure binding to the […]-HLA A0201 complex, respectively, as shown in FIGS. 7a-7d. […] Also, the binding activity of the soluble TCR molecule of the present disclosure to several complexes of other unrelated antigen short peptides and HLA was also tested by the method.

B1: TCR1 (TCR, V domains shown)
Valpha: AQKVTQAQTEISVVEKEDVTLDCVYETRDTTYYLFWYKQPPSGELVFLIRRNSFDEQNEISGRYSWNFQKSTSSFNFTITASQVVDSAVYFCALRAGANNLFFGTGTRLTVIP
Vbeta: NAGVTQTPKFQVLKTGQSMTLQCAQDMNHNSMYWYRQDPGMGLRLIYYSASEGTTDKGEVPNGYNVSRLNKREFSLRLESAAPSQTSVYFCASGPWGSSGNTIYFGEGSWLTVV
Question: Does B1 bind?
Answer: Result: recognises

B2: TCR4 (TCR, V domains shown)
Valpha: B1 Valpha with N99W, N100P, L101M, F102K
Vbeta: B1 Vbeta
Question: Does B2 bind?
Answer: Result: recognises

B3: TCR2 (TCR, V domains shown)
Valpha: B1 Valpha with N100L, L101P, F102V
Vbeta: B1 Vbeta
Question: Does B3 bind?
Answer: Result: recognises

B4: TCR3 (TCR, V domains shown)
Valpha: B1 Valpha with N100T, L101P, F102I
Vbeta: B1 Vbeta
Question: Does B4 bind?
Answer: Result: recognises
